Reference: patent publication US6432922
Where “and” joins values, the source holds several entries; their conditions need not be identical. Equal entries are not always repeated.

Tests used:
Assay in all cases: cell-based or functional assay
[1] = molecular target: Purified human plasmin, obtained from Enzyme Research Laboratories, Inc. (human) (UniProt P00747)
[2] = molecular target: Urokinase (Abbokinase), manufactured by Abbott Laboratories (UniProt P00749)
[3] = molecular target: Human rt-PA (Activase), obtained from Genentech Inc. (human) (UniProt P00750)
Chain of Human rt-PA (Activase), obtained from Genentech Inc. (human) (P00750 36-562 limits assumed): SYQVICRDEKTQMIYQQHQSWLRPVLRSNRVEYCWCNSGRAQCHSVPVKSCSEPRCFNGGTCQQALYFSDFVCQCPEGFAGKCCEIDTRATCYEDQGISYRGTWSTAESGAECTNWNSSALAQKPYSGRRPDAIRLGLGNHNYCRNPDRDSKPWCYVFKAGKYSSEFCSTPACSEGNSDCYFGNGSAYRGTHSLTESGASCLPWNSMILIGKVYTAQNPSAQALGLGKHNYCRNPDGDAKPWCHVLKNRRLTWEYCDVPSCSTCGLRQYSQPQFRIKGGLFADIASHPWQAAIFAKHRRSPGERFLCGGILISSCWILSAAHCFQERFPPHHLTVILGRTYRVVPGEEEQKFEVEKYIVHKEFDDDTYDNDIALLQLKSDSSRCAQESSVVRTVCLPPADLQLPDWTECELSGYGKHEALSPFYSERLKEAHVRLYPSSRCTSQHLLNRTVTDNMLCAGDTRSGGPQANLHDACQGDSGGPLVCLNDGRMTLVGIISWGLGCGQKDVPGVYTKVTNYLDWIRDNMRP

Chain of Purified human plasmin, obtained from Enzyme Research Laboratories, Inc. (human) (P00747 97-810 limits assumed): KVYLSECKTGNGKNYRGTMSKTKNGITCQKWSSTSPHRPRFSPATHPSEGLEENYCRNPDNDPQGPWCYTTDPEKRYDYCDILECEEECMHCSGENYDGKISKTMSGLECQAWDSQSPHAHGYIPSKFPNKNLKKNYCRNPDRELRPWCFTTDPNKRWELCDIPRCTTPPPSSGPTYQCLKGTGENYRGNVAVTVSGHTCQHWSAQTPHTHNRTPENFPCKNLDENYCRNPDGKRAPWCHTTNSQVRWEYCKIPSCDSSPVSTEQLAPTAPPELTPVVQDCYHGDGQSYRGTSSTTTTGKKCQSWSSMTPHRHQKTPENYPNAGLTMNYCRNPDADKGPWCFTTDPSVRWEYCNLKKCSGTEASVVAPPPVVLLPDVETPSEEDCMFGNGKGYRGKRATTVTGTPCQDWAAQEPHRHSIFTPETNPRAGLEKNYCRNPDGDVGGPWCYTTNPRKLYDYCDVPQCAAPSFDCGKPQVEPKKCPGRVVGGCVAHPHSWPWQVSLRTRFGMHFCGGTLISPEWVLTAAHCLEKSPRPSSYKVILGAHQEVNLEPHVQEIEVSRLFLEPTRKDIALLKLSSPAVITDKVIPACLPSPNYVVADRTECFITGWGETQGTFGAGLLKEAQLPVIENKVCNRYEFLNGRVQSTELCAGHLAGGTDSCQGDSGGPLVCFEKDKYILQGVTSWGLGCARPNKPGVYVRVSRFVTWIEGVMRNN

Row | IC50 [1] | IC50 [2] | IC50 [3] [µM] | Substance
1 | > 0.25 µM and < 2.5 µM | < 0.1 µM | – | benzenesulfonyl-D-seryl-azetidyl-argininal, trifluoroacetate salt (peptide)
2 | – | > 0.1 µM and < 0.25 µM | > 2.5 | benzyloxycarbonyl-D-seryl-2-norvalyl-argininal (peptide)
3 | > 0.25 µM and < 2.5 µM | > 0.1 µM and < 0.25 µM | > 2.5 | benzyloxycarbonyl-D-seryl-L-allylglycyl-argininal (peptide)
4 | > 0.25 µM and < 2.5 µM | < 0.1 µM | > 2.5 | benzyloxycarbonyl-D-seryl-L-propargylglycyl-argininal (peptide)

Second part, the substance before the results:

Row | Substance | IC50 [1] | IC50 [2] | IC50 [3] [µM]
5 | benzyloxycarbonyl-D-seryl-2-aminobutanoyl-argininal (peptide) | – | < 0.1 µM | > 2.5
6 | benzyloxycarbonyl-D-seryl-L-3,4-dehydroprolyl-argininal (peptide) | > 0.1 µM and < 0.25 µM | < 0.1 µM | > 2.5
7 | benzyloxycarbonyl-D-seryl-L-azetidine-2-carbonyl-argininal (peptide) | > 0.25 µM and < 2.5 µM | < 0.1 µM | > 2.5
8 | benzyloxycarbonyl-D-seryl-L-β-cyanoalanine-argininal (peptide) | > 0.25 µM and < 2.5 µM | < 0.1 µM | > 2.5
9 | benzyloxycarbonyl-D-seryl-pipecolyl-argininal (peptide) | – | > 0.1 µM and < 0.25 µM | > 2.5
